For test [1], the target named is CD20 on CD20+ Ramos B cells (human) (UniProt P11836). As to the kind of experiment: flow cytometry on Ramos B cells, PE-conjugated goat anti-human IgG Fc secondary. (A flow cytometer gives signals particle by particle.)
The target of test [2] is T1, CD20 on CD20+ Ramos B cells (human, UniProt P11836 1-297).
T1 construct: whole, on cells; also called human CD20
T1 sequence (looked up): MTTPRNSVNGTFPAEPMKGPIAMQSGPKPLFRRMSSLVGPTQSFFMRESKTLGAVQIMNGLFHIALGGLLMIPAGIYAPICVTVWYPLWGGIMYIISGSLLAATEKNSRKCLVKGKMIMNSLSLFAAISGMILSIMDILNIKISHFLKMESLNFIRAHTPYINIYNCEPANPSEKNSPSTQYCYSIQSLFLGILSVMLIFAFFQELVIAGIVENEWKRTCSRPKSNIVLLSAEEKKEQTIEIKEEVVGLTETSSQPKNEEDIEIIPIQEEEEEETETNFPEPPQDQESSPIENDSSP
The test is described as above. Here is the method: Next, binding of the improved CD20 mAb to CD20+ Ramos B cells was investigated. 1.5×10⁵ Ramos B cells were incubated with indicated concentrations of bivalent IgG1 mAb having either [CD20]H0L0 or optimized [CD20]_H1_L1 on ice for 1 hour. PE-conjugated goat anti-human IgG Fc was used as a secondary antibody to detect binding of the CD20 mAbs to the target cells.

For orientation: EC50 means the concentration giving half of the maximal effect. High values mean a less potent agent, low ones a more potent agent. In test [1], “bivalent IgG1 mAb having the rituximab Fv [CD20]_H0L0 (antibody)” returned an EC50 of 0.264 µg/mL.

B1: bivalent IgG1 mAb having humanized/affinity-optimized [CD20]_H1_L1 Fv (antibody, V domains shown)
VH: QVQLVQSGAEVKKPGASVKVSCKASGYTFTSYNMHWVRQAPGQRLEWMGAIYPGNGATSYSQKFQGRVTITADTSASTAYMELSSLRSEDTAVYYCARSYYMGGDWYFDVWGAGTLVTVSS
VL: QIVLTQSPSSLSASVGDRVTITCRASWSVSYIHWFQQKPGKSPKPLIYATSNLASGVPVRFSGSGSGTDYTLTISSLQPEDFATYYCQQWTHNPPTFGGGTKVEIK
notes: also called improved CD20 mAb
In test [2], B1 showed a concentration for a half-maximal effect (EC50) of 0.175 µg/mL.
